Measured values as given in paper PMC3285612.

What was measured:
[1] = biological target: activated coagulation factor X (FXa), human (human); experiment: enzyme inhibition assay (Ki from IC50 by Cheng and Prusoff); rSimukunin titrated against a constant concentration of enzyme, pre-incubated 5 min, fluorogenic peptidyl substrate 250 µM, 30°C; Ki calculated from the IC50 and the substrate's Km; estimated
[2] = biological target: activated coagulation factor X (FXa), human (human)

B1: recombinant Simukunin (rSV-66) (natural protein)
chain: QENVCNLPVDEGVCRALFKRFYYEPATDSCKEFYYGGCEGNGNRFKSKKECILKCQKNKQLIKTRKRKPKKTTKPPIPIISLD
Ki [1]: 2.1 nM | IC50 of inhibition of enzyme activity (fluorogenic peptidyl substrate, 250 µM); Factor Xa 0.1 nM [2]: 5.2 nM
